Test results: PMC8277605, “Binding of gephyrin to microtubules is regulated by its phosphorylation at Ser270” (Histochemistry and Cell Biology, 2021)

Columns and labels:
[1] = target: microtubules polymerized from endogenous tubulin of HEK293T cell extracts (human (endogenous in HEK293T)) (UniProt P68363); assay: co-sedimentation; MT co-sedimentation assay with HEK293T lysates only (gephyrin alone, gephyrin or mutant gephyrin with CbII(-SH3)); endogenous cellular tubulin polymerized with 2 mM GTP and 20 uM paclitaxel in MES buffer; 100,000 x g; immunoblot with mAb7a, R-20, DM1alpha; band ratios standardized to the tubulin signal
[2] = target: the molecule itself; assay: native gel or EMSA; blue-native PAGE of 100 ug cytosol per lane, second dimension 12.5% SDS-PAGE, Western blot for gephyrin; NativeMARK standard

Sequence of microtubules polymerized from endogenous tubulin of HEK293T cell extracts (human (endogenous in HEK293T)) (P68363 whole entry, chain 1 of 2): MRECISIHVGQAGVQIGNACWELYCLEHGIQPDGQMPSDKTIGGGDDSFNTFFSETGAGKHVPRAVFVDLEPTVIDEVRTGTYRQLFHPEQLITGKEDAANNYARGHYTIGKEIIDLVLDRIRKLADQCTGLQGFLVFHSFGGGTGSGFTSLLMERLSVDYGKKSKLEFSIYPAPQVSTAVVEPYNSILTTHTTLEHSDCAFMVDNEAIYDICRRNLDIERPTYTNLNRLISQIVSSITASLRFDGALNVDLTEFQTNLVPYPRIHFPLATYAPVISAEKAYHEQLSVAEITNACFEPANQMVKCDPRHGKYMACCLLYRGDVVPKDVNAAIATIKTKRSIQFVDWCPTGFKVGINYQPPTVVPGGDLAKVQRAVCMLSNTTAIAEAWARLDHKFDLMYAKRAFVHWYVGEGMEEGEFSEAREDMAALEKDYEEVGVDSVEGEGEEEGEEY
Sequence of microtubules polymerized from endogenous tubulin of HEK293T cell extracts (human (endogenous in HEK293T)) (P07437 whole entry, chain 2 of 2, further chain): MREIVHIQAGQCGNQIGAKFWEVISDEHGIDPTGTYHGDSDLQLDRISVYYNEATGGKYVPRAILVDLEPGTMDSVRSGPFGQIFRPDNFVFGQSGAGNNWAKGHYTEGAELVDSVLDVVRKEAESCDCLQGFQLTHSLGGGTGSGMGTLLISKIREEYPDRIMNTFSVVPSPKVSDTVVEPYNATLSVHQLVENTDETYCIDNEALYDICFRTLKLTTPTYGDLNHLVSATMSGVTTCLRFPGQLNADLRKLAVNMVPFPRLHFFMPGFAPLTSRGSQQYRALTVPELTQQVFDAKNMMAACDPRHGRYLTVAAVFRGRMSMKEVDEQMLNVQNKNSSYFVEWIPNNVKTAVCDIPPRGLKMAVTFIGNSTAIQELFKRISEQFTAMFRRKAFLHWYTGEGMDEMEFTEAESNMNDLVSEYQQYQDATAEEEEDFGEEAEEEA

Molecule | ratio of the mAb7a signal in the insoluble to soluble fraction [1] | stoichiometry N [2]
recombinant gephyrin (P1), N-terminally 6-histidine-tagged (natural protein) | 1.5 | 
recombinant gephyrin (P1) phosphorylated at Ser270 (detected by mAb7a) (natural protein) | 0.17 | 
gephyrin, endogenous in HEK293T cells (natural protein, human (endogenous in HEK293T), UniProt Q9NQX3 1-736, looked up, human gephyrin, endogenous in HEK293T cells; also called endogenous gephyrin; source: endogenous, HEK293T protein extract (cytosol)) MATEGMILTNHDHQIRVGVLTVSDSCFRNLAEDRSGINLKDLVQDPSLLGGTISAYKIVPDEIEEIKETLIDWCDEKELNLILTTGGTGFAPRDVTPEATKEVIEREAPGMALAMLMGSLNVTPLGMLSRPVCGIRGKTLIINLPGSKKGSQECFQFILPALPHAIDLLRDAIVKVKEVHDELEDLPSPPPPLSPPPTTSPHKQTEDKGVQCEEEEEEKKDSGVASTEDSSSSHITAAAIAAKIPDSIISRGVQVLPRDTASLSTTPSESPRAQATSRLSTASCPTPKVQSRCSSKENILRASHSAVDITKVARRHRMSPFPLTSMDKAFITVLEMTPVLGTEIINYRDGMGRVLAQDVYAKDNLPPFPASVKDGYAVRAADGPGDRFIIGESQAGEQPTQTVMPGQVMRVTTGAPIPCGADAVVQVEDTELIRESDDGTEELEVRILVQARPGQDIRPIGHDIKRGECVLAKGTHMGPSEIGLLATVGVTEVEVNKFPVVAVMSTGNELLNPEDDLLPGKIRDSNRSTLLATIQEHGYPTINLGIVGDNPDDLLNALNEGISRADVIITSGGVSMGEKDYLKQVLDIDLHAQIHFGRVFMKPGLPTTFATLDIDGVRKIIFALPGNPVSAVVTCNLFVVPALRKMQGILDPRPTIIKARLSCDVKLDPRPEYHRCILTWHHQEPLPWAQSTGNQMSSRLMSMRSANGLLMLPPKTEQYVELHKGEVVDVMVIGRL |  | 6
gephyrin, endogenous in U2OS cells (natural protein, human (endogenous in U2OS), UniProt Q9NQX3 1-736, looked up, human gephyrin, endogenous in U2OS osteosarcoma cells; also called endogenous gephyrin; source: endogenous, U2OS protein extract (cytosol)) MATEGMILTNHDHQIRVGVLTVSDSCFRNLAEDRSGINLKDLVQDPSLLGGTISAYKIVPDEIEEIKETLIDWCDEKELNLILTTGGTGFAPRDVTPEATKEVIEREAPGMALAMLMGSLNVTPLGMLSRPVCGIRGKTLIINLPGSKKGSQECFQFILPALPHAIDLLRDAIVKVKEVHDELEDLPSPPPPLSPPPTTSPHKQTEDKGVQCEEEEEEKKDSGVASTEDSSSSHITAAAIAAKIPDSIISRGVQVLPRDTASLSTTPSESPRAQATSRLSTASCPTPKVQSRCSSKENILRASHSAVDITKVARRHRMSPFPLTSMDKAFITVLEMTPVLGTEIINYRDGMGRVLAQDVYAKDNLPPFPASVKDGYAVRAADGPGDRFIIGESQAGEQPTQTVMPGQVMRVTTGAPIPCGADAVVQVEDTELIRESDDGTEELEVRILVQARPGQDIRPIGHDIKRGECVLAKGTHMGPSEIGLLATVGVTEVEVNKFPVVAVMSTGNELLNPEDDLLPGKIRDSNRSTLLATIQEHGYPTINLGIVGDNPDDLLNALNEGISRADVIITSGGVSMGEKDYLKQVLDIDLHAQIHFGRVFMKPGLPTTFATLDIDGVRKIIFALPGNPVSAVVTCNLFVVPALRKMQGILDPRPTIIKARLSCDVKLDPRPEYHRCILTWHHQEPLPWAQSTGNQMSSRLMSMRSANGLLMLPPKTEQYVELHKGEVVDVMVIGRL |  | 6
gephyrin from liver tissue (natural protein, UniProt Q03555 1-768, looked up, gephyrin endogenous in liver tissue; source: endogenous, liver protein extract) MATEGMILTNHDHQIRVGVLTVSDSCFRNLAEDRSGINLKDLVQDPSLLGGTISAYKIVPDEIEEIKETLIDWCDEKELNLILTTGGTGFAPRDVTPEKFPTFPFCGLQKGATKEVIEREAPGMALAMLMGSLNVTPLGMLSRPVCGIRGKTLIINLPGSKKGSQECFQFILPALPHAIDLLRDAIVKVKEVHDELEDLPSPPPPLSPPPTTSPHKQTEDKGVQCEEEEEEKKDSGVASTEDSSSSHITAAALAAKIPDSIISRGVQVLPRDTASLSTTPSESPRAQATSRLSTASCPTPKQIRRPDESKGVASRVGSLKVQSRCSSKENILRASHSAVDITKVARRHRMSPFPLTSMDKAFITVLEMTPVLGTEIINYRDGMGRVLAQDVYAKDNLPPFPASVKDGYAVRAADGPGDRFIIGESQAGEQPTQTVMPGQVMRVTTGAPIPCGADAVVQVEDTELIRESDDGTEELEVRILVQARPGQDIRPIGHDIKRGECVLAKGTHMGPSEIGLLATVGVTEVEVNKFPVVAVMSTGNELLNPEDDLLPGKIRDSNRSTLLATIQEHGYPTINLGIVGDNPDDLLNALNEGISRADVIITSGGVSMGEKDYLKQVLDIDLHAQIHFGRVFMKPGLPTTFATLDIDGVRKIIFALPGNPVSAVVTCNLFVVPALRKMQGILDPRPTIIKARLSCDVKLDPRPEYHRCILTWHHQEPLPWAQSTGNQMSSRLMSMRSANGLLMLPPKTEQYVELHKGEVVDVMVIGRL |  | 6
